# According to US9061070B2, “Treating stroke and other diseases without inhibiting N-type calcium channels” (NoNO, Inc., priority 2007, dated 2015):
# Molecular target: T1, chemokine CXCR2 (IL-8Rb) (Homo sapiens, UniProt P25025)
# T1 sequence (P25025 1-360): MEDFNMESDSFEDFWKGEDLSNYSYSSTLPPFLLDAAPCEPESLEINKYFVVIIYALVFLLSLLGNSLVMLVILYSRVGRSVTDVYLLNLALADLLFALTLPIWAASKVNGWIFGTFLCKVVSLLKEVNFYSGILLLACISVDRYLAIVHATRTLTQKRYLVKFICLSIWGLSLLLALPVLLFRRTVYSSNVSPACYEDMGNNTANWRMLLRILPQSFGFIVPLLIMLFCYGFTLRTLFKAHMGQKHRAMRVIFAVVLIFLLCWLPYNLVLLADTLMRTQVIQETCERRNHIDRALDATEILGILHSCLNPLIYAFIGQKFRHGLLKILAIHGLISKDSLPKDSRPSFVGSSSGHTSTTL
# Test: Competitive radioligand binding screen, IL-8/IL-8RB
# Conditions: 10 μM peptide
sequence,measurement,value
"YGRKKRRQRRRKLSSIESDV [Tat-NR2B9c, reference compound]",inhibition of IL-8/IL-8RB,80%
